These results are taken from article doi:10.1101/2024.02.14.580290 (bioRxiv, 2024).

This assay concerns the target rat Gβ1 with Hexa-His-tag (in purified Gαsβ1γ2) (rat, UniProt P54311 2-340). The assay can be described thus: cross-linking.

B1: bovine Gαs short subunit (in purified Gαsβ1γ2) (natural protein)
chain: MGCLGNSKTEDQRNEEKAQREANKKIEKQLQKDKQVYRATHRLLLLGAGESGKSTIVKQMRILHVNGFNGDGEKATKVQDIKNNLKEAIETIVAAMSNLVPPVELANPENQFRVDYILSVMNVPDFDFPPEFYEHAKALWEDEGVRACYERSNEYQLIDCAQYFLDKIDVIKQDDYVPSDQDLLRCRVLTSGIFETKFQVDKVNFHMFDVGGQRDERRKWIQCFNDVTAIIFVVASSSYNMVIREDNQTNRLQEALNLFKSIWNNRWLRTISVILFLNKQDLLAEKVLAGKSKIEDYFPEFARYTTPEDATPEPGEDPRVTRAKYFIRDEFLRISTASGDGRHYCYPHFTCAVDTENIRRVFNDCRDIIQRMHLRQYELL
Take B1: the binding result is reported as “binds”.
